# Reference: patent publication US20110179505A1, “RODENT CANCER MODEL FOR HUMAN FGFR4 ARG388 POLYMORPHISM” (priority 2008, published 2011)
# Entries after “also recorded” stand apart in the source; their conditions may differ.
# Key:
# FGFR4 Arg/Arg385 MEFs = experiment: Apoptosis assay in MEFs (propidium-iodide, FACS) after chemotherapeutic drugs; assay type: cell-based, mouse
# Procedure: Transmigration of MEFs were analysed in Boyden Chambers (Schubert & Weiss, Germany). 1.5×10^4 cells were seeded in starving medium containing 0% FCS. Migration was performed to DMEM containing 4% FCS for 16 h. Afterwards cells were stained with crystal violet and migrated cells were analysed macroscopically. To perform an apoptosis assay 1.5×10^4cells in DMEM containing 10% FCS were seeded in 12-well plates. After 24 h cells were treated with 0.5 μM doxorubicin for 48 h. Afterwards cells were stained with propidium-iodide and apoptotic cells were determined in a FACS (FACScalibus, BD) analysis as previously described (27).
# To support these observations by molecular analytical methods we determined whether the FGFR4 Arg385 allele is hyperactivated in MEFs and thereby enhances cell transformation. The expression of the different FGFR4 isoforms is equal in MEFs as well as its basic state of phosphorylation (FIG. 9A). Next, we wanted to check if FGFR4 Arg385 facilitates cell survival or influences physiological processes of MEFs. Therefore we analysed the number of population doublings until the cells enter senescence in vitro and additionally stained MEFs, subcultured for 30 days, for […] to visualize senescent cells. However, we found no obvious differences between the different FGFR4 alleles (FIG. 9B). […] Further we wanted to investigate the influence of the FGFR4 Arg385 allele on physiological processes. As a motility enhancing effect of is the FGFR4 Arg388 allele had already been shown by Bange and colleagues with a human mammary carcinoma cell line, we wanted to confirm this observation in MEFs, but as shown in FIG. 9C no difference observed when Gly/Gly—were compared to Arg/Arg-MEFs. Contrarily, Arg-carrying MEFs seemed to strongly support cell survival in response to DNA-damaging agents. […] Additionally, we investigated the anti-apoptotic impact of the FGFR4 Arg385 after treatment with other chemotherapeutic drugs.
# [1] = biological target: Epidermal Growth Factor Receptor (EGFR, SEQ ID NO: 77) (Homo sapiens (Human)) (UniProt P00533); experiment: cell-based or functional assay
# [2] = test system: MDA-MB-231 cells overexpressing the FGFR4 Arg388 allele; assay type: cell-based, human; details: FGFR4 Arg388 expressing cells; Gefitinib 0.025-20 μM
# [3] = test system: MDA-MB-231 cells expressing FGFR4 Gly388; assay type: cell-based, human; details: up to 20 μM of Gefitinib
# [4] = test system: MDA-MB-231 cells expressing the empty pLXSN vector; experiment: MTT-proliferation assay with Gefitinib; assay type: cell-based, human; details: up to 20 μM of Gefitinib
# [5] = test system: MDA-MB-231 cells expressing the FGFR4 Arg388 allele; assay type: cell-based, human; details: FIG. 20C
# [6] = test system: FGFR4 Arg388 expressing MDA-MB-231 cells; experiment: Apoptosis in response to Gefitinib treatment; assay type: cell-based, human; details: Gefitinib 20 μM (p=0.012) and 10 μM (p=0.0022); 96 hours
# Procedure: In a preferred embodiment, the proliferation rate is determined via a MTT proliferation assay, the apoptosis is determined via FACS analysis (Nicoletti et al., 1991, J. Immunol. Methods, 139: 271-279), and/or the migration is determined with a Boyden Chamber Assay, e.g. as described in the Examples below.
# To further analyze the physiological connection between the EGFR and the FGFR4 we investigated the differences between the different FGFR4 alleles in MDA-MB-231 overexpressing cells upon exposure to Gefitinib. […]. Therefore, physiological processes that require the dimerization of the EGFR and the FGFR4 should lead to different results in the presence of Gefitinib compared to those obtained without an EGFR inhibitor. […]. Therefore, we investigated the impact of FGFR4 Arg388 overexpression on apoptosis in response to Gefitinib treatment in MDA-MB-231 cells. […]; 10 μM-p=0.0022). […].
# [7] = biological target: T1, mouse wild-type FGFR4 (FGFR4 Gly385) (mouse, UniProt Q03142 17-799); experiment: in vivo SILAC LC-MS/MS of FGFR4 immunoprecipitates from liver, labelled SILAC mouse against FGFR4 KO mouse
# T1 construct: Endogenous hepatic FGFR4, immunoprecipitated from mouse liver lysates; also called hepatic FGFR4
# Procedure: The hepatic FGFR4 of the unlabelled mouse was immunoprecipitated in the presence of the blocking peptides to detect unspecific binding partners. […] Unspecific interaction partners should display a 1:1 ratio compared to the unlabelled fraction incubated with the blocking peptides. […] For that reason, the investigation of hepatic FGFR4 interaction partners was done with the liver of FGFR4 KO mice (Yu et al., 2000).
# Here, significance (PEP<0.03), amount of razor peptides (RPs, >1) and an upregulation of at least 3 fold in FGFR4 KO experiments identified potential FGFR4 interaction partner.
# [8] = biological target: T2, mouse FGFR4 Arg385 (knock-in allele) (mouse, UniProt Q03142 17-799); experiment: in vivo SILAC LC-MS/MS of FGFR4 immunoprecipitates from liver; FGFR4 Arg385 against the reference FGFR4 Gly385
# T2 construct: Endogenous FGFR4 of FGFR4 Arg385 KI mice (liver lysates) and of MEFs derived from them
# [9] = biological target: T2, mouse FGFR4 Arg385 (knock-in allele); experiment: in vivo SILAC LC-MS/MS of FGFR4 immunoprecipitates from liver, FGFR4 Arg385 mouse with the labelled SILAC mouse as internal standard
# [10] = biological target: T1, mouse wild-type FGFR4 (FGFR4 Gly385); experiment: in vivo SILAC LC-MS/MS of FGFR4 immunoprecipitates from liver, FGFR4 Gly385 mouse with the labelled SILAC mouse as internal standard
# [11] = biological target: human FGFR4 Arg388 (pLXSN-FGFR4 Arg388, overexpressed in MDA-MB-231 cells) (human) (UniProt P22455); experiment: SILAC LC-MS/MS of FGFR4 immunoprecipitates, MDA-MB-231 cells; FGFR4 Arg388 against the reference FGFR4 Gly388
# [12] = biological target: human FGFR4 Arg388 (pLXSN-FGFR4 Arg388, overexpressed in MDA-MB-231 cells) (human) (UniProt P22455); experiment: SILAC LC-MS/MS of FGFR4 immunoprecipitates, MDA-MB-231 cells overexpressing FGFR4 Arg388, normalized to empty pLXSN control cells
# [13] = biological target: human FGFR4 Gly388 (pLXSN-FGFR4 Gly388, overexpressed in MDA-MB-231 cells) (human) (UniProt P22455); experiment: SILAC LC-MS/MS of FGFR4 immunoprecipitates, MDA-MB-231 cells overexpressing FGFR4 Gly388, normalized to empty pLXSN control cells
# T2 sequence (Q03142 17-799 G385R/E673G limits assumed): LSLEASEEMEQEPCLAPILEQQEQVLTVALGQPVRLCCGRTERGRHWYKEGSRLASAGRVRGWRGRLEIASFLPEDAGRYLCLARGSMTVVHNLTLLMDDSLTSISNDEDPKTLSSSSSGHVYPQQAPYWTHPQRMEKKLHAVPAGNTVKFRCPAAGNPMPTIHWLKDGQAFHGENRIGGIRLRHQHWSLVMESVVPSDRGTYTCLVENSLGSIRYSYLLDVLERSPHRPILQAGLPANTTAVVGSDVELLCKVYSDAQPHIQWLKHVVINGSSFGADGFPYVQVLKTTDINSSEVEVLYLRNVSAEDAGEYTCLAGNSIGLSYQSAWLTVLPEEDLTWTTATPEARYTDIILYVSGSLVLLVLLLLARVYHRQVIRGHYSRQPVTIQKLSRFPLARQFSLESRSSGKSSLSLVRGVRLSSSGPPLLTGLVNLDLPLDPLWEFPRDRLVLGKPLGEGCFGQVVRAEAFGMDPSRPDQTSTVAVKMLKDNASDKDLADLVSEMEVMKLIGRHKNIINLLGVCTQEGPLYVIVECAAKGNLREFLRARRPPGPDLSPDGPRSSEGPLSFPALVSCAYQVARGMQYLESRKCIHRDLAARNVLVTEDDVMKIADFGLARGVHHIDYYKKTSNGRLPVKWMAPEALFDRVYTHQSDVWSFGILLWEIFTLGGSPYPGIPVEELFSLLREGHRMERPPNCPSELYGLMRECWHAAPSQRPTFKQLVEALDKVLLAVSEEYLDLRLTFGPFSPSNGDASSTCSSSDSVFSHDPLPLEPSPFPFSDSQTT
# Sequence of human FGFR4 Arg388 (pLXSN-FGFR4 Arg388, overexpressed in MDA-MB-231 cells) (human) (P22455 22-802 G388R): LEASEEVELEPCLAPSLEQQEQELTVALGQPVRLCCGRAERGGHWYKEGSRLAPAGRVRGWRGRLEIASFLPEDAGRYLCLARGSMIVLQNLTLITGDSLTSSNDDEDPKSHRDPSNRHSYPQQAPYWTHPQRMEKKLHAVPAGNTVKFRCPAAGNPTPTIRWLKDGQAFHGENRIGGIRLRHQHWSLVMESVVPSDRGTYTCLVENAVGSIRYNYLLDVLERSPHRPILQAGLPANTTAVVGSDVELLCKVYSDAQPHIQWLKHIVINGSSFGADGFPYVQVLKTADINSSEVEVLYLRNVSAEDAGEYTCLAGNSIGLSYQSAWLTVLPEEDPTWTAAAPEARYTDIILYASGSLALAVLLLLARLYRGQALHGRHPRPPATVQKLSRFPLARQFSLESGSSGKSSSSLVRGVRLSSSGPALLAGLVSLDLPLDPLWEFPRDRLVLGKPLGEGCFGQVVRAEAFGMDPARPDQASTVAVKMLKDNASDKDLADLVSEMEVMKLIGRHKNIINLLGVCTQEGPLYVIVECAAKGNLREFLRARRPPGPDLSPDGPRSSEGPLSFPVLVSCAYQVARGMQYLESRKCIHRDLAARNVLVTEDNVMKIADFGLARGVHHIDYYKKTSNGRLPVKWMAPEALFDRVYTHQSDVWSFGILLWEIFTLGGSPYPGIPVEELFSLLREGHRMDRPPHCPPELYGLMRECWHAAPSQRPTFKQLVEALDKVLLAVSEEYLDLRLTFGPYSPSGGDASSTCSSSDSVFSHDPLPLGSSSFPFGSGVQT
# T1 sequence (Q03142 17-799 E673G limits assumed): as the sequence (Q03142 17-799 G385R/E673G limits assumed) above, with R369G counted along it
# Sequence of human FGFR4 Gly388 (pLXSN-FGFR4 Gly388, overexpressed in MDA-MB-231 cells) (P22455 22-802 limits assumed): as the sequence (P22455 22-802 G388R) above, with R367G counted along it
# Sequence of Ephrin type-A receptor 2 (P29317 24-976 limits assumed): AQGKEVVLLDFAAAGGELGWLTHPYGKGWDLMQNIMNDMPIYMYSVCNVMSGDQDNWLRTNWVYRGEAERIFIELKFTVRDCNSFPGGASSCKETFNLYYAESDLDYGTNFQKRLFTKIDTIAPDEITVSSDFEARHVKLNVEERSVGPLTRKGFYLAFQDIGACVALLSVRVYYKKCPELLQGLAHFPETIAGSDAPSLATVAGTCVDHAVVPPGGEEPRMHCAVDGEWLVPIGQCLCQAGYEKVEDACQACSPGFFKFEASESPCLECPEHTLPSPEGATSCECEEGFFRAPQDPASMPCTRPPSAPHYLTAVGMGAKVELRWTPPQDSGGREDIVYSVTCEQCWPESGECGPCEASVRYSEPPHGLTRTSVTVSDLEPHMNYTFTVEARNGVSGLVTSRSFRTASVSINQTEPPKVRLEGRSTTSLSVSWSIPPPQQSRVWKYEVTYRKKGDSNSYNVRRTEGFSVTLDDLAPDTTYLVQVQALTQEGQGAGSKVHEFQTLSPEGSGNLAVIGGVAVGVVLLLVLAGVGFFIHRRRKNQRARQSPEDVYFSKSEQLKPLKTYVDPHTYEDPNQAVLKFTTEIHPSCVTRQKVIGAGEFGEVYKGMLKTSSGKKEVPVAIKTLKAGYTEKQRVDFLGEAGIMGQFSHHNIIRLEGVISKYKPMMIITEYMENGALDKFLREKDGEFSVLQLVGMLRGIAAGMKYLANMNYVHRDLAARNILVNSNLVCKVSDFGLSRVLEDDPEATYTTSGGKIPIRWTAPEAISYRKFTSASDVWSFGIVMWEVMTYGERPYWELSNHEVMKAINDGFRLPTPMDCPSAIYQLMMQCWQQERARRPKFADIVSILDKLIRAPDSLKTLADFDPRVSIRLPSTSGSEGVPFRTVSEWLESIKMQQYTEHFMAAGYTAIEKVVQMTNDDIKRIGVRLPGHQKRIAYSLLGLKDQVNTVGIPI
Molecule,ratio FGFR4 KO (n = 2) [7] [fold],ratio FGFR4 Arg385/Gly385 [8],ratio FGFR4 Arg385 (n = 2) [9],ratio FGFR4 Gly385 (n = 1) [10],further results
N.N.[Cl][Pt][Cl] [cisplatin],–,–,–,–,"apoptotic cells in Arg385 carrying MEFs compared to Gly/Gly385 MEFs (FGFR4 Arg/Arg385 MEFs; 3 μM cisplatin, 48 hrs, p=0.03): decreased apoptosis; also recorded: reduced number of apoptotic cells"
"human FGFR4 Arg388 (pLXSN-FGFR4 Arg388, overexpressed in MDA-MB-231 cells) (from UniProt P22455 22-802) (receptor)",–,–,–,–,"IC50 of Gefitinib, MTT-proliferation assay of MDA-MB-231 cells overexpressing the FGFR4 Arg388 allele [1]: 9.53 µM; inhibition of migration by Gefitinib (2.5 µM), Boyden Chamber Assay, 15 hours, against DMSO treated control cells [1]: 22.3%"
COc1cc2ncnc(Nc3ccc(F)c(Cl)c3)c2cc1OCCCN1CCOCC1 [Gefitinib],–,–,–,–,response in MTT-proliferation assay [2]: typical dose response curve; response in MTT-proliferation assay [3]: no response; response in MTT-proliferation assay [4]: no response; migration in FGFR4 Arg388 cells compared to FGFR4 Gly388 cells in response to Gefitinib [5]: decrease in migration; apoptotic response in FGFR4 Arg388 cells compared to FGFR4 Gly388 cells [6]: significantly increased apoptotic response; also recorded: significant increase in apoptosis
Hydroxymethylglutaryl-CoA synthase (from UniProt P54869 38-508) (enzyme),3.3,1,1.8,1.8,–
Formimidoyltransferase-cyclodeaminase (from UniProt Q91XD4 1-541) (enzyme),3.5,2.7,1,0.4,–
Propanoyl-CoA C-acyltransferase (from UniProt P32020 1-547) (enzyme),7.8,18.6,3.6,0.2,–
Hydroxyacid oxidase 1 (from UniProt Q9WU19 1-370) (enzyme),19.7,27.8,1.6,0.1,–
Ephrin type-A receptor 2 (from UniProt P29317 24-976),–,–,–,–,ratio FGFR4Arg388/Gly388 (n = 2) [11]: 1.05 fold; ratio FGFR4Arg388 (n = 2) [12]: 8.74 fold; ratio FGFR4Gly388 (n = 2) [13]: 7.97 fold
COc1cccc2c1C(=O)c1c(O)c3c(c(O)c1C2=O)C[C@@](O)(C(=O)CO)C[C@@H]3O[C@H]1C[C@H](N)[C@H](O)[C@H](C)O1 [doxorubicin],–,–,–,–,"apoptotic cells in Arg/Arg385 MEFs compared to Gly/Gly385 MEFs (FGFR4 Arg/Arg385 MEFs; 0.5 μM doxorubicin, 48 h, p=0.03): decreased percentage of apoptotic cells; also recorded: reduced number of apoptotic cells"
"human FGFR4 Gly388 (pLXSN-FGFR4 Gly388, overexpressed in MDA-MB-231 cells) (from UniProt P22455 22-802) (receptor)",–,–,–,–,"IC50 of Gefitinib, MTT-proliferation assay of MDA-MB-231 cells expressing FGFR4 Gly388 (same value for empty pLXSN) [1]: 18.7 µM; inhibition of migration by Gefitinib (2.5 µM), Boyden Chamber Assay, 15 hours, against DMSO treated control cells [1]: 6.28%"
"Protein tyrosine phosphatase, receptor type, F (from UniProt P10586 30-1907)",–,–,–,–,ratio FGFR4Arg388/Gly388 (n = 2) [11]: 1.06 fold; ratio FGFR4Arg388 (n = 2) [12]: 14.3 fold; ratio FGFR4Gly388 (n = 2) [13]: 16.6 fold
"Epidermal growth factor receptor (mouse liver, Egfr) (from UniProt Q01279 25-1210)",5.8,3.8,1.3,0.3,–
CC(=O)O[C@H]1C(=O)[C@@]2(C)[C@H]([C@H](OC(=O)c3ccccc3)[C@]3(O)C[C@H](OC(=O)[C@H](O)[C@@H](NC(=O)c4ccccc4)c4ccccc4)C(C)=C1C3(C)C)[C@]1(OC(C)=O)CO[C@@H]1C[C@@H]2O [taxol],–,–,–,–,"apoptotic response in Gly/Gly385 MEFs compared to Arg/Arg385 MEFs (FGFR4 Arg/Arg385 MEFs; taxol, 48 hrs): no differences in apoptotic response"
"Beta-klotho (receptor, mouse, UniProt Q99N32 1-1043, looked up, Endogenous protein co-immunoprecipitated with hepatic FGFR4; also called βKlotho) MKTGCAAGSPGNEWIFFSSDERNTRSRKTMSNRALQRSAVLSAFVLLRAVTGFSGDGKAIWDKKQYVSPVNPSQLFLYDTFPKNFSWGVGTGAFQVEGSWKTDGRGPSIWDRYVYSHLRGVNGTDRSTDSYIFLEKDLLALDFLGVSFYQFSISWPRLFPNGTVAAVNAQGLRYYRALLDSLVLRNIEPIVTLYHWDLPLTLQEEYGGWKNATMIDLFNDYATYCFQTFGDRVKYWITIHNPYLVAWHGFGTGMHAPGEKGNLTAVYTVGHNLIKAHSKVWHNYDKNFRPHQKGWLSITLGSHWIEPNRTDNMEDVINCQHSMSSVLGWFANPIHGDGDYPEFMKTGAMIPEFSEAEKEEVRGTADFFAFSFGPNNFRPSNTVVKMGQNVSLNLRQVLNWIKLEYDDPQILISENGWFTDSYIKTEDTTAIYMMKNFLNQVLQAIKFDEIRVFGYTAWTLLDGFEWQDAYTTRRGLFYVDFNSEQKERKPKSSAHYYKQIIQDNGFPLKESTPDMKGRFPCDFSWGVTESVLKPEFTVSSPQFTDPHLYVWNVTGNRLLYRVEGVRLKTRPSQCTDYVSIKKRVEMLAKMKVTHYQFALDWTSILPTGNLSKVNRQVLRYYRCVVSEGLKLGVFPMVTLYHPTHSHLGLPLPLLSSGGWLNMNTAKAFQDYAELCFRELGDLVKLWITINEPNRLSDMYNRTSNDTYRAAHNLMIAHAQVWHLYDRQYRPVQHGAVSLSLHCDWAEPANPFVDSHWKAAERFLQFEIAWFADPLFKTGDYPSVMKEYIASKNQRGLSSSVLPRFTAKESRLVKGTVDFYALNHFTTRFVIHKQLNTNRSVADRDVQFLQDITRLSSPSRLAVTPWGVRKLLAWIRRNYRDRDIYITANGIDDLALEDDQIRKYYLEKYVQEALKAYLIDKVKIKGYYAFKLTEEKSKPRFGFFTSDFRAKSSVQFYSKLISSSGLPAENRSPACGQPAEDTDCTICSFLVEKKPLIFFGCCFISTLAVLLSITVFHHQKRRKFQKARNLQNIPLKKGHSRVFS",28.2,0.7 ratio,2.4 ratio,3.2 ratio,–
